Results: US20180282412A1 (ASIA BIOTECH PTE, published 2018)

Legend:
[1] = target: T1, PD-1-Fc fusion protein (extracellular region of human PD-1 fused to human Fc) (human); assay: solution-equilibrium ELISA (Holash method): antibody preincubated with PD-1-Fc, free antibody captured on coated PD-1-Fc
T1 construct: unlabelled when coated on plates or immobilized; also called human PD-1-Fc; PD-1-Fc-biotin
Experimental: (§1) Finally, TMB was added as a substrate for HRP, and the absorbance was measured at 450 nm.

[2] = target: T2, CD28 (Homo sapiens (Human), UniProt P10747 19-152); assay: ELISA on coated CD28, HRP anti-human kappa
T2 construct: also called CD28 family member CD28
Experimental: (§2) The specificity of anti-PD-1 antibodies was examined by detecting their binding to CD28 family members ICOS, CTLA-4 and CD28 (R&D System) using standard ELISA. […] Finally, TMB was added as a substrate for HRP, and the absorbance was measured at 450 nm.

[3] = target: T3, Cynomolgus monkey PD-1-Fc (Cynomolgus monkey, UniProt B0LAJ3 25-170); assay: ELISA on coated Cynomolgus monkey PD-1-Fc, HRP anti-human kappa
T3 construct: not shown: The Fc part and any linker
Experimental: as §1

[4] = target: T1, PD-1-Fc fusion protein (extracellular …); assay: ELISA on coated PD-1-Fc, HRP anti-human kappa
[5] = target: T4, full-length human PD-1 expressed on transfected CHO-K1 cells (CHO/PD-1) (human, UniProt Q15116 25-288); assay: flow cytometry on CHO/PD-1 cells, FITC anti-human antibody
T4 construct: also called PD-1-transfected CHO cells; cell surface PD-1
Experimental: After 1 hour incubation, the cells were washed and an FITC labelled anti human antibody was incubated for 1 hour. Then the cells were washed and the flow cytometric analysis was performed using a FACScan flow cytometry.

[6] = target: T5, mouse PD-1-Fc (mouse, UniProt Q02242 25-169); assay: ELISA on coated mouse PD-1-Fc, HRP anti-human kappa
T5 construct: extracellular domain; not shown: Fc part
T5 sequence (looked up): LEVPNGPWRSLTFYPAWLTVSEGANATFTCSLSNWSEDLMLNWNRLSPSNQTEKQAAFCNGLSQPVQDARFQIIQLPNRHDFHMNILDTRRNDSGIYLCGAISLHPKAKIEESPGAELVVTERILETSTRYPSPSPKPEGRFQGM
Experimental: as §1

[7] = target: T4, full-length human PD-1 expressed on …; assay: flow cytometry competition on CHO/PD-1 cells, competitor FITC labelled Nivolumab at a sub-saturating concentration
[8] = target: T1, PD-1-Fc fusion protein (extracellular …); assay: ELISA on coated PD-1-Fc, HRP anti-human kappa; remark: listed apart in the source
[9] = target: T1, PD-1-Fc fusion protein (extracellular …); assay: ELISA on coated human PD-1-Fc, HRP anti-human kappa
Experimental: as §1

[10] = target: T1, PD-1-Fc fusion protein (extracellular …); assay: SPR (Biacore), PD-1-Fc immobilized, antibody as analyte
Experimental: (§3) Affinity constants were calculated from the ratio of the rate constants.

[11] = target: T1, PD-1-Fc fusion protein (extracellular …); assay: competition ELISA on coated PD-1-Fc, competitor biotin labelled Nivolumab, HRP-avidin
[12] = target: T1, PD-1-Fc fusion protein (extracellular …); assay: competition ELISA on coated PD-1-Fc, blocked ligand biotin labelled PDL1-Fc, HRP-avidin
[13] = target: T1, PD-1-Fc fusion protein (extracellular …); assay: SPR (Biacore), ligand PD1-Fc-biotin, sample hu67D9, 25 C, fit 1:1 Binding
Experimental: as §3

[14] = target: T6, ICOS (Homo sapiens (Human), UniProt Q9Y6W8 21-140); assay: ELISA on coated ICOS, HRP anti-human kappa
T6 construct: also called CD28 family member ICOS
T6 sequence: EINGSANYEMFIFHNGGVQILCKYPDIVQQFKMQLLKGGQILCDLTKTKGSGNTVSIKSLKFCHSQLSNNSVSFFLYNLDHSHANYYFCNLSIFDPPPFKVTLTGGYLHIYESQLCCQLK
Experimental: as §2

[15] = target: T7, CTLA-4 (Homo sapiens (Human), UniProt P16410 36-161); assay: ELISA on coated CTLA-4, HRP anti-human kappa
T7 construct: also called CD28 family member CTLA-4
T7 sequence: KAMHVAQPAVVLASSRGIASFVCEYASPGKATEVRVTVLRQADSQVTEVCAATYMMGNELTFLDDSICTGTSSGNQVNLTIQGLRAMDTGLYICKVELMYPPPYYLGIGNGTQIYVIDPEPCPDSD
Experimental: as §2

[16] = target: T4, full-length human PD-1 expressed on …; assay: flow cytometry blocking assay, 10 ug/ml antibody with biotin-PD-L1-Fc (blocked ligand) on CHO/PD-1 cells, Avidin-PE
Experimental: Then the mixture was added to the CHO/PD-1 cells. After 1 hour, the cells were washed and binding of was detected with Avidin-PE. Flow cytometric analysis was performed using a FACScan flow cytometry (Becton Dickinson).

[17] = target: T6, ICOS; assay: ELISA on coated ICOS, HRP anti-mouse kappa
Experimental: as §2

[18] = target: T2, CD28; assay: ELISA on coated CD28, HRP anti-mouse kappa
Experimental: as §2

[19] = target: T5, mouse PD-1-Fc; assay: ELISA on coated mouse PD-1-Fc, HRP anti-mouse kappa
Experimental: as §1

[20] = target: T1, PD-1-Fc fusion protein (extracellular …); assay: ELISA on coated PD-1-Fc, HRP anti-mouse kappa
[21] = target: T1, PD-1-Fc fusion protein (extracellular …); assay: ELISA on coated human PD-1-Fc, HRP anti-mouse kappa
Experimental: as §1

[22] = target: T7, CTLA-4; assay: ELISA on coated CTLA-4, HRP anti-mouse kappa
Experimental: as §2

[23] = target: T3, Cynomolgus monkey PD-1-Fc; assay: ELISA on coated Cynomolgus monkey PD-1-Fc, HRP anti-mouse kappa
Experimental: as §1

B1: anti-PD-1 humanized antibody hu67D9 (antibody, human IgG4 S228P, kappa, V domains shown)
VH: EVQLVESGGGLVQPGGSLRLSCAASGFTFSTYGMSWVRQAPGKGLEWVATISGGGRDTYYPDTVKGRFTISRDNSKNTLYLQMSSLRAEDTAVYYCARQDYGNYVWFAYWGQGTLVTVSS
VL: DIVLTQSPASLAVSPGQRATISCRASESVDSYGISFMHWFQQKPGQPPQLLIYSTSNRGSGVPARFSGSGSGTDFSLTINPVEADDTANYFCQQSQEVPWTFGQGTKVEIKR
notes: also called humanized 67D9; humanized Ab
For B1, the Kd [1] was 0.0154 nM, the binding result [2] was “no binding (tested: 1000 ng/ml)” and the “EC50 (read off the curve)” value [3] was about 10 ng/mL. For the same binder, the “EC50 (read off the curve)” value [4] was about 10 ng/mL, the “EC50 (read off the curve)” value [5] was about 20 ng/mL and the binding result [6] was “no binding (tested: 1000 ng/ml)”. For the same binder, the “IC50 (read off the curve)” value [7] was about 5000 ng/mL, the “EC50 (read off the curve)” value [8] was about 10 ng/mL and the “EC50 (read off the curve)” value [9] was about 10 ng/mL. For the same binder, the Kd [10] was 0.00321 nM, the “IC50 (read off the curve)” value [11] was about 5000 ng/mL and the “IC50 (read off the curve)” value [12] was about 2 ng/mL. For the same binder, the koff [13] was 2.77e-05 s⁻¹, the kon [13] was 8.63e+06 M⁻¹ s⁻¹ and the binding result [14] was “no binding (tested: 1000 ng/ml)”. B1: no binding (tested: 1000 ng/ml) [15].

B2: 67D9 chimeric antibody (c67D9) (antibody, human IgG4 S228P, kappa, V domains shown)
VH: EVILVESGGGLVKPGGSLKVSCAASGFTFSTYGMSWVRQTPEKRLEWVATISGGGRDTYYPDTVKGRFTISRDNAKNTLYLQMSSLRSEDTALYYCARQDYGNYVWFAYWGQGTLVTVSA
VL: not shown
notes: Human kappa light chain (detected with anti-human kappa); also called chimeric Ab
In the case of B2, the Kd [1] is reported as 0.0169 nM, the binding result [2] is reported as “no binding (tested: 1000 ng/ml)” and the “EC50 (read off the curve)” value [3] is reported as about 10 ng/mL. The binding result [6] was “no binding (tested: 1000 ng/ml)”, the “EC50 (read off the curve)” value [8] was about 10 ng/mL and the “EC50 (read off the curve)” value [9] was about 10 ng/mL. B2: binds [16]; no binding (tested: 1000 ng/ml) [14]; no binding (tested: 1000 ng/ml) [15].

B3: 67D9 (mouse anti-PD-1 monoclonal antibody) (antibody, mouse IgG2a, V domains shown)
VH: EVILVESGGGLVKPGGSLKVSCAASGFTFSTYGMSWVRQTPEKRLEWVATISGGGRDTYYPDTVKGRFTISRDNAKNTLYLQMSSLRSEDTALYYCARQDYGNYVWFAYWGQGTLVTVSA
VL: not shown
notes: Purified from hybridoma supernatant by Protein G; also called mouse Ab
In the case of B3, the binding result [17] is reported as “no binding (tested: 1000 ng/ml)”, the Kd [1] is reported as 0.0124 nM and the binding result [18] is reported as “no binding (tested: 1000 ng/ml)”. For the same binder, the binding result [19] was “no binding (tested: 1000 ng/ml)”, the “EC50 (read off the curve)” value [20] was about 10 ng/mL and the binding result [16] was “binds”. The “EC50 (read off the curve)” value [21] was about 10 ng/mL, the binding result [22] was “no binding (tested: 1000 ng/ml)” and the “EC50 (read off the curve)” value [23] was about 10 ng/mL.
